Measured values: paper PMC5979328, “Establishing a Split Luciferase Assay for Proteinkinase G (PKG) Interaction Studies” (International Journal of Molecular Sciences, 2018)
Changes are numbered by the printed parent chain. One block for each binder: values may come before it.

Columns and labels:
[1] = target: T1, cGKIα-CBRC (proteinkinase G isoform Iα fused at its C-terminus to the C-terminal fragment of click beetle red … (UniProt P00516 1-671)); experiment: split reporter (BiFC, NanoBiT); click beetle red luciferase complementation (CBRN/CBRC) in co-transfected COS-7 cells, 15 µg DNA, vector ratios 1:25 to 1:100 (mostly 1:50); cells untreated or stimulated for 24 h with 8-Br-cGMP (0.5-2.5 mM), 8-pCPT-cGMP (100-500 µM) or 8-Br-cAMP (0.125-1 mM); Bright-Glo reagent, plate reader, RLU; settings: partners not purified
T1 construct: cGMP-dependent protein kinase I, alpha isoform (cGKIα, PKGIα); also called PKGIα; cGMP dependent kinase Iα; source: COS-7 cells, calcium phosphate transfection, in living cells; not shown: CBRC (click beetle red luciferase aa 395-542; joined by a 17-residue Gly/Ser linker), C-terminal, kept
T1 sequence (looked up): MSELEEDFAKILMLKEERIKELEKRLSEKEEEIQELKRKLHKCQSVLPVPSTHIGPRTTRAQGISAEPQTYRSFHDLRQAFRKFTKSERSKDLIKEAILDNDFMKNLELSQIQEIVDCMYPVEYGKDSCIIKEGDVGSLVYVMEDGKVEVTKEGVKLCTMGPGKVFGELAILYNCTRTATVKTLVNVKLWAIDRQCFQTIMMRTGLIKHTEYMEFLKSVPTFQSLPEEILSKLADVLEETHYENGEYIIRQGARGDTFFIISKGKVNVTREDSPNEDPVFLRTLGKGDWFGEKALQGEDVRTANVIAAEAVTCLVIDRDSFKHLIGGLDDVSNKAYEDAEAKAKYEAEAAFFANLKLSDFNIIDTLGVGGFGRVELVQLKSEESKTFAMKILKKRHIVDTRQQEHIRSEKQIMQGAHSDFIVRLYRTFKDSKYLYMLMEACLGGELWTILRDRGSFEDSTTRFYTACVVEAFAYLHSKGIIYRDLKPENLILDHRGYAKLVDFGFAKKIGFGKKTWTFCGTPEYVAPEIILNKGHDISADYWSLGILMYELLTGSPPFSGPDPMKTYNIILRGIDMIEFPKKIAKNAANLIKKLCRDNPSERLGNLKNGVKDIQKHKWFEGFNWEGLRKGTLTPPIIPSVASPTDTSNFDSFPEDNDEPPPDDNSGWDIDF

[2] = target: the molecule itself; experiment: Western blot of monomer and dimer under non-reducing conditions; primary mesangial cells, control or stimulated with H2O2, non-reducing conditions (Figure S3)

fold signal amplification (100 µM 8-pCPT-cGMP, treated/untreated) [1]: 3.5 fold | fold signal amplification (200 µM 8-pCPT-cGMP, treated/untreated) [1]: 3.8 fold | fold signal amplification (0.5 mM 8-Br-cGMP, treated/untreated) [1]: 2.2 fold | fold signal amplification (500 µM 8-pCPT-cGMP, treated/untreated) [1]: 3.9 fold | fold signal amplification (1 mM 8-Br-cGMP, 24 h, against basal luminescence) [1]: ~3.5 fold | fold signal amplification (1 mM 8-Br-cGMP, treated/untreated) [1]: 3.6 fold | fold signal amplification (2.5 mM 8-Br-cGMP, treated/untreated) [1]: 2.8 fold
B1: CBRN-RGS2 (regulator of G-protein signaling 2 fused at its N-terminus to the N-terminal fragment of click beetle red luciferase) (natural protein, UniProt P41220 1-211, looked up)
chain: MQSAMFLAVQHDCRPMDKSAGSGHKSEEKREKMKRTLLKDWKTRLSYFLQNSSTPGKPKTGKKSKQQAFIKPSPEEAQLWSEAFDELLASKYGLAAFRAFLKSEFCEENIEFWLACEDFKKTKSPQKLSSKARKIYTDFIEKEAPKEINIDFQTKTLIAQNIQEATSGCFTTAQKRVYSLMENNSYPRFLESEFYQDLCKKPQITTEPHAT
notes: regulator of G-protein signaling 2 (RGS2); cDNA from pCMV6_RGS2 (OriGene); source: COS-7 cells, calcium phosphate transfection, in living cells; not shown: CBRN (click beetle red luciferase aa 1-416; joined by a 17-residue Gly/Ser linker), N-terminal, kept

B2: cGKIα in primary mesangial cells (enzyme, UniProt P0C605 1-671, looked up)
chain: T1 sequence (looked up) with E227D, K265Q, N275S, N656S
notes: cGMP-dependent protein kinase I, alpha isoform, in primary mesangial cells; also called the kinase; PKGIα
stoichiometry N [2]: 2
